Results as given in PMC9398005, “A Drosophila Su(H) model of Adams-Oliver Syndrome reveals cofactor titration as a mechanism underlying developmental defects” (PLoS Genetics, 2021).
Values belong to the binder of their own block, whether it stands above or below them.

Legend:
Conditions in all cases: both partners purified
mouse Rbpj E89G (53-474) = target: T1, mouse Rbpj E89G (53-474) (mouse, UniProt P31266 53-474, E89G); test: ITC; RAM peptide, Hairless or SHARP in the syringe, Su(H) or Rbpj in the cell; 50 mM sodium phosphate, 150 mM sodium chloride; 20 injections of 14 uL; triplicate; one site binding model; 20°C by the methods, 25°C by the legend of Fig 6
T1 construct: also called analogous to human RBPJ E63G; source: E. coli BL21 Tuner, pGEX-6P1, purified (glutathione resin, PreScission cleavage, SP ion exchange)
T1 sequence (P31266 53-474 E89G): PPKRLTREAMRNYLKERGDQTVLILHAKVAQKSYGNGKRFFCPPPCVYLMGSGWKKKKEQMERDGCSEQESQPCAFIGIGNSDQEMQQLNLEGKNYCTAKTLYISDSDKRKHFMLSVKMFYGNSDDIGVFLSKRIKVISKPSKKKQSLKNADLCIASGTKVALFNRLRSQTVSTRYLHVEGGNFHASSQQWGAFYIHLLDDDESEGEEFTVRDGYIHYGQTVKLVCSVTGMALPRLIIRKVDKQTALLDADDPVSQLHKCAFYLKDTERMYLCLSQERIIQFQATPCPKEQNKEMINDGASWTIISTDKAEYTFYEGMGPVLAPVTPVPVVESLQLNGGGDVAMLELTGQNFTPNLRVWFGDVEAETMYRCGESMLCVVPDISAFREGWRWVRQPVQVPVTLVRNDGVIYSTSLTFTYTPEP

[1] = target: T2, mouse Rbpj K195E (53-474) (mouse, UniProt P31266 53-474, K195E); test: as above
T2 construct: also called analogous to human RBPJ K169E; source: E. coli BL21 Tuner, pGEX-6P1, purified (glutathione resin, PreScission cleavage, SP ion exchange)
T2 sequence (P31266 53-474 K195E): as the sequence (P31266 53-474 E89G) above, with G37E, K143E counted along it

mouse Rbpj WT (53-474) = target: T3, mouse Rbpj WT (53-474) (mouse, UniProt P31266 53-474); test: as above
T3 construct: also called CBF1; mouse CSL; source: E. coli BL21 Tuner, pGEX-6P1, purified (glutathione resin, PreScission cleavage, SP ion exchange)
T3 sequence (P31266 53-474): as the sequence (P31266 53-474 E89G) above, with G37E counted along it

mouse Rbpj (53-474) E89G = target: T4, mouse Rbpj (53-474) E89G (mouse, UniProt P31266 53-474, E89G); test: ITC; cofactor (RAM peptide, Hairless or SHARP) in the syringe, Su(H) or Rbpj in the cell; 50 mM sodium phosphate, 150 mM sodium chloride; 20 injections, triplicate, one site model; 25°C by the legend, 20°C by the methods
T4 construct: also called Rbpj E89G; E89G (analogous to human RBPJ E63G); source: E. coli BL21 Tuner, purified (ammonium sulfate, glutathione resin, PreScission cut, SP ion exchange)
T4 sequence (P31266 53-474 E89G): as the sequence (P31266 53-474 E89G) above

mouse Rbpj (53-474) WT = target: T5, mouse Rbpj (53-474) WT (mouse, UniProt P31266 53-474); test: as above
T5 construct: also called WT Rbpj; WT RBPJ; source: E. coli BL21 Tuner, purified (ammonium sulfate, glutathione resin, PreScission cut, SP ion exchange)
T5 sequence (P31266 53-474): as the sequence (P31266 53-474 E89G) above, with G37E counted along it

[2] = target: T6, mouse Rbpj (53-474) K195E (mouse, UniProt P31266 53-474, K195E); test: as above
T6 construct: also called Rbpj K195E; K195E (analogous to human RBPJ K169E); source: E. coli BL21 Tuner, purified (ammonium sulfate, glutathione resin, PreScission cut, SP ion exchange)
T6 sequence (P31266 53-474 K195E): as the sequence (P31266 53-474 E89G) above, with G37E, K143E counted along it

Ka (mouse Rbpj E89G (53-474)): 5.6e+07 M⁻¹
Kd (mouse Rbpj E89G (53-474)): 19.9 nM
Ka [1]: 5.1e+07 M⁻¹
Kd [1]: 22.4 nM
Ka (mouse Rbpj WT (53-474)): 4.8e+07 M⁻¹
Kd (mouse Rbpj WT (53-474)): 20.8 nM
B1: Notch1 RAM peptide (residues 1754-1781) (peptide)
peptide: VLLSRKRRRQHGQLWFPEGFKVSEASKK
notes: Notch1, RAM domain; also called mNotch1 RAM; mouse Notch 1 RAM; source: synthetic peptide (Peptide2.0, 95% purity)

Kd (mouse Rbpj (53-474) E89G): ~5 nM
Kd (mouse Rbpj (53-474) WT): ~5 nM
Kd [2]: 21 nM
B2: SHARP residues 2776-2833 (domain or fragment, human, UniProt Q96T58 2776-2833, looked up)
chain: RASANENSRFHPGSMPVIDDRPADAGSGAGLRVNTSEGVVLLSYSGQKTEGPQRISAK
notes: called mouse SHARP in the results and the legend; also called mouse SHARP; mouse co-repressor SHARP; source: recombinant from pSMT3, purified as previously described

Ka (mouse Rbpj E89G (53-474)): 2.9e+08 M⁻¹
Kd (mouse Rbpj E89G (53-474)): 5.2 nM
Ka [1]: 5.8e+07 M⁻¹
Kd [1]: 21.1 nM
Ka (mouse Rbpj WT (53-474)): 1.5e+09 M⁻¹
Kd (mouse Rbpj WT (53-474)): 3.5 nM
B3: SHARP residues 2776-2833 (domain or fragment, human, UniProt Q96T58 2776-2833, looked up)
chain: B2 chain
notes: the methods say human SHARP, the results and legend say mouse SHARP; species told as human in the methods and as mouse in the results and legend; also called mouse SHARP; source: bacterial recombinant, pSMT3, purified as previously described

Kd (mouse Rbpj (53-474) E89G): ~20 nM
Kd (mouse Rbpj (53-474) WT): ~20 nM
Kd [2]: ~20 nM
B4: Notch1 RAM peptide (human Notch1 residues 1754-1781) (peptide)
peptide: VLLSRKRRRQHGQLWFPEGFKVSEASKK
notes: Notch1 RAM domain; the methods give human Notch1 residues 1754-1781, the results and the legend call it the mouse RAM domain; Methods say human Notch1 residues, results say mouse; also called mouse Notch 1 RAM; mouse RAM domain from Notch1; source: synthetic peptide (Peptide2.0, 95% purity)
